Molecular target: CD81 (UniProt P60033)
Assay: cell-based or functional assay

Sequence of UniProt P60033 (P60033 whole entry): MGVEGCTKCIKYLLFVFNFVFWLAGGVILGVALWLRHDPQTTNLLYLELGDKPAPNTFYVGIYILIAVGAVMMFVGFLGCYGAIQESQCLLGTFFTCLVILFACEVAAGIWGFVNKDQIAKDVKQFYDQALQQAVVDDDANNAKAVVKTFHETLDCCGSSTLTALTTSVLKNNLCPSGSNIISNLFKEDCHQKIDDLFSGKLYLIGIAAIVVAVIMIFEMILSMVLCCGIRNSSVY

degradation of total CD81, Western blot of HepG2 cells: 25%
Substance: PCSK9 (proprotein convertase subtilisin/kexin type 9) (from UniProt Q8NBP7 31-692) (enzyme)
